# pIC50, pKd: −log10 of the molar value. Marks after values point to notes of the source that are not given here. Bridges are numbered along the chain shown (N, C = ends). Where no end group is shown, it is not given here.
# Columns and labels:
# rabbit albumin [1] = target: T1, rabbit albumin (Oryctolagus cuniculus, UniProt P49065); experiment: SA08b binding assay (peptide competition ELISA), rabbit albumin; parameters: purchased Sigma; conditions: concentrations of up to 100 μM; data not shown
# Source text: (§1) Plates were blocked as described above.
# (§2) Peptides corresponding to identified phage sequences were synthesized and their affinity for rat, rabbit or mouse albumin measured using the SA08b binding assay.
# rat albumin [2] = target: T2, rat albumin (Rattus norvegicus, UniProt P02770); experiment: SA08b binding assay (peptide competition ELISA), rat albumin; parameters: purchased Sigma; conditions: concentrations of up to 100 μM; data not shown
# Source text: as §1, §2
# [3] = Pharmacokinetics of AB.Fab variants in rabbits (HER2 Binding ELISA); assay type: in vivo; conditions: Rabbit; group mean
# Method: (§3) All pharmacokinetic (PK) studies were conducted according to protocols approved by the Institutional Animal Care and Use Committee at Genentech, Inc. Sprague Dawley rats were supplied by Charles River Laboratories (Hollister, Calif. USA). New Zealand White (NWZ) rabbits were supplied by Myrtle's Rabbitry (Thompson Station, Tenn. USA). BALB-c mice were supplied by Charles River (Hollister, Calif. USA).
# (§4) Briefly, samples were added to microtiter wells coated with HER2ecd and incubated for 2 hours at room temperature. The wells were washed, and goat anti-huFab-HRP was added and incubated for 1 hour at room temperature. Unbound HRP was removed by washing and enzyme substrate was added to detect bound HRP. […] Concentrations of AB.Fab were extrapolated by comparison to a standard curve of the dosed molecule.
# (§5) For rats and rabbits, concentration versus time profiles for each animal were fit to a two compartment model using, iterative re-weighting to estimate the pharmacokinetic parameters of Area Under the Concentration-Time Curve (AUC), Clearance (CL), Beta Half-Life (t1/2β), Volume of Distribution of the Central Compartment (V1), and Steady State Volume of Distribution (Vss) using WinNonlin® software (Version 3.2, Pharsight, Inc.; Mountain View, Calif.) and group means were calculated.
# [4] = Pharmacokinetics of AB.Fab variants in mice (HER2 Binding ELISA); assay type: in vivo; conditions: Mouse, group mean profile; for t1/2β: 4D5-H8 fit to one-compartment model (one half life estimate)
# Method: as §3
# Over the course of 7 days serum was collected in 3 mice per time point by retro-orbital bleed or cardiac stick.
# as §4
# In mice, a group mean serum concentration versus time profile was determined, producing one estimate for pharmacokinetic parameters for each AB.Fab dosing group. […] AB.Fab variant 4D5-H8 was fit to a one compartment model and estimates for the PK parameters of AUC, CL, Half-Life (t1/2) and V1 were determined using WinNonlin® software (Pharsight, Inc., supra).
# [5] = Pharmacokinetics of AB.Fab variants in rats (HER2 Binding ELISA); assay type: in vivo; conditions: Rat; group mean
# Method: as §3
# At pre-dose, and over the course of 7 days post-dose, plasma was collected via a cannula inserted in the jugular vein.
# as §4, §5
# rat albumin [6] = target: T2, rat albumin; experiment: Solution Binding ELISA, AB.Fab variants with soluble rat albumin; parameters: purchased Sigma; conditions: Rat albumin, as listed in Table 15; read-out: Kd for Albumin
# rabbit albumin [7] = target: T1, rabbit albumin; experiment: Phage ELISA, phage clones on immobilized rabbit albumin; assay type: binding; parameters: purchased Sigma; conditions: for phage binding to rabbit albumin at pH 2.9: data not shown
# Method: (§6) Phage clones (approximately 10^11 phage) were added to Maxisorp plates coated with rat, rabbit, or human albumin or with mouse, bovine, or rhesus albumin (Sigma), as described above. The microtiter plate was washed with wash buffer and bound phage were detected following incubation with HRP/Anti-M13 Conjugate (Amerisham Pharmacia Biotech, Piscataway, N.J.).
# human albumin = target: T3, human albumin (Homo sapiens, UniProt P02768); experiment: Phage ELISA, phage clones on immobilized human albumin; assay type: binding
# T3 construct: purchased Sigma
# Method: as §6
# albumin = experiment: SA08b binding assay / competition ELISA, albumin species not stated; conditions: albumin species not given
# T1 sequence (P49065 25-608): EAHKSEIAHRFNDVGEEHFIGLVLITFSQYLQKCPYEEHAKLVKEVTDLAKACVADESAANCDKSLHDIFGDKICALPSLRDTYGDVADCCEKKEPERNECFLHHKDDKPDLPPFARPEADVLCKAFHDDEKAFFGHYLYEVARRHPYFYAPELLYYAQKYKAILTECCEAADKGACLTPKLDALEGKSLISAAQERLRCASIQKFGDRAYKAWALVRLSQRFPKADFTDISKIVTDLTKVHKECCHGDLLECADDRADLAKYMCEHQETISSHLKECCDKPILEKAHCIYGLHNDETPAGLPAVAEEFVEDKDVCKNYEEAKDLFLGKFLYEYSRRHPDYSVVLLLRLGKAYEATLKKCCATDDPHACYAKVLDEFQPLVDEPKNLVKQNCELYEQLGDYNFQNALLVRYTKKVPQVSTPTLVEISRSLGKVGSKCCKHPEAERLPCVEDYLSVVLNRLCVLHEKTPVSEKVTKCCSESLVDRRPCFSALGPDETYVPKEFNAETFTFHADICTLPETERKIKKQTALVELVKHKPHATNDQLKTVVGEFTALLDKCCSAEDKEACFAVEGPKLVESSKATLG
# T2 sequence (P02770 25-608): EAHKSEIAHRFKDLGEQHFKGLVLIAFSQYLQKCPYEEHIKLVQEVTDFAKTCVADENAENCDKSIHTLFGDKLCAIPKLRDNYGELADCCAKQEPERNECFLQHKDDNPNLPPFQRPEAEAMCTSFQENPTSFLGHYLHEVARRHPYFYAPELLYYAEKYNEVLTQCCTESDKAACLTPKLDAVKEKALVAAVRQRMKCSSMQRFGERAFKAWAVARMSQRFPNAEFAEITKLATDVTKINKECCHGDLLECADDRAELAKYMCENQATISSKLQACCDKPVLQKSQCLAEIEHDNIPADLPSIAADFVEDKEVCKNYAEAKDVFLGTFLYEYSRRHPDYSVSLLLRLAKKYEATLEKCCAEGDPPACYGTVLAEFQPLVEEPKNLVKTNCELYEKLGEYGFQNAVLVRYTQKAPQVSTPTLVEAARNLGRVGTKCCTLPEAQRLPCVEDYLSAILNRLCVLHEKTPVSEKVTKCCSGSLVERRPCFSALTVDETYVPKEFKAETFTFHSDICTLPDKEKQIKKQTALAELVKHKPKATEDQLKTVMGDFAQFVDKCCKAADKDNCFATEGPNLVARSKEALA
Compound,AUC [3] [µg·h/mL],CL [3] [mL/h/kg],V1 [3] [L/kg],Vss [3] [L/kg],t1/2β [3] [h],AUC [5] [µg·h/mL],CL [5] [mL/h/kg],V1 [5] [L/kg],Vss [5] [L/kg],t1/2β [5] [h],other results
"CN(C)c1cccc2c(S(=O)(=O)N(C)CC(=O)O)cccc12 [dansylsarcosine, reference compound]",,,,,,,,,,,effect on SA08b peptide binding to rabbit albumin (rabbit albumin [1]): no effect; effect on SA08b peptide binding to rat albumin (rat albumin [2]): no effect
"CCCCCCCCCCCCCC(=O)O [myristic acid, reference compound]",,,,,,,,,,,effect on SA08b peptide binding to rabbit albumin (rabbit albumin [1]): no effect; effect on SA08b peptide binding to rat albumin (rat albumin [2]): no effect
AB.Fab 4D5-H4 (DICLPRWGCLWED; disulfide 3-9 (inferred); also: part of Fab heavy chain),127 ± 16.5,3.58 ± 0.496,0.0305 ± 0.00167,0.0822 ± 0.0102,28.3 ± 2.88,1450 ± 146,3.24 ± 0.352,0.0522 ± 0.00421,0.076 ± 0.00656,20.7 ± 1.07,AUC [4]: 2070 µg·h/mL; CL [4]: 2.41 mL/h/kg; V1 [4]: 0.0284 L/kg; Vss [4]: 0.0444 L/kg; t1/2β [4]: 13.5 h
AB.Fab 4D5-H8 (IEDICLPRWGCLWE; disulfide 5-11 (inferred); also: part of Fab heavy chain),232 ± 62.7,1.99 ± 0.477,0.0296 ± 0.00332,0.0659 ± 0.0071,36.2 ± 7.13,1890 ± 294,2.44 ± 0.453,0.0458 ± 0.00811,0.0859 ± 0.0154,28.0 ± 1.88,AUC [4]: 2610 µg·h/mL; CL [4]: 1.91 mL/h/kg; Vss [4]: 0.0387 L/kg; t1/2β [4]: 14.0^b hr
AB.Fab 4D5-H10 (DICLPRWGCLW; disulfide 3-9 (inferred); also: part of Fab heavy chain),33.7 ± 3.32,13.5 ± 1.40,0.0368 ± 0.00412,0.0987 ± 0.0141,12.0 ± 2.21,541 ± 77.9,9.21 ± 1.24,0.0446 ± 0.00204,0.0753 ± 0.0092,10.9 ± 2.86,
AB.Fab 4D5-H11 (DICLPRWGCL; disulfide 3-9 (inferred); also: part of Fab heavy chain),24.6 ± 2.74,20.6 ± 2.24,0.0404 ± 0.00438,0.101 ± 0.0317,11.9 ± 2.61,57.0 ± 7.39,80.2 ± 11.8,0.0487 ± 0.00225,0.0816 ± 0.00576,4.21 ± 0.151,pKd (rat albumin [6]): 5.60
HSQMEDICLPRWGCLWGDEL [RB-B8],,,,,,,,,,,phage binding to rabbit albumin at pH 2.9 (rabbit albumin [7]): no binding
QRHPEDICLPRWGCLWGDDD [RB-H1],,,,,,,,,,,phage binding to rabbit albumin at pH 2.9 (rabbit albumin [7]): no binding
"QRQMVDFCLPQWGCLWGDGF [RB, phage clone selected on rat SA, ID 35]",,,,,,,,,,,binding to rabbit albumin (rabbit albumin [7]; phage ELISA): capable of binding; binding to human albumin (human albumin): capable of binding
"linear peptide, identical to SA06, but having both Cys residues altered to Ala: linear peptide, identical to SA06, but having both Cys residues altered to Ala (LEYEDIALPKWGALWGGE)",,,,,,,,,,,pIC50 (albumin): < 4.30
